According to patent US20210230280A1:

Molecular target: FGFR4 (human) (UniProt P22455)
Assay: ELISA; also printed 0.001 ug/mL

Chain of FGFR4 (human) (P22455 22-369): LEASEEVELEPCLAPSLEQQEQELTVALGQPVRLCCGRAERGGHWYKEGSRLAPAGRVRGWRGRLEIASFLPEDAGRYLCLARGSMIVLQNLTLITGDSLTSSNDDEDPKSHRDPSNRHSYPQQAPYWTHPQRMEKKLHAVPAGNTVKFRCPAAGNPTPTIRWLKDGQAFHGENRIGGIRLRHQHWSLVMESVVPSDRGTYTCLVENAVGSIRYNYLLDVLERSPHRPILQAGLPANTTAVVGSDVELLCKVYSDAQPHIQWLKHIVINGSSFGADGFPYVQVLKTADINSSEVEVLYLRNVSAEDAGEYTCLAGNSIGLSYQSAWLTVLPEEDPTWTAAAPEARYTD

Kd: 0.07 nM
Substance: ab41948
